Source: patent US20220153832A1 (PIONYR IMMUNOTHERAPEUTICS, published 2022)
Where “and” joins values, the source holds several entries; their conditions need not be identical. Equal values may be shown once.

Legend:
[1] = biological target: T1, recombinant cynomolgus MARCO protein (cynomolgus, UniProt A0A2K5X0Z2 65-519); assay: SPR, multi cycle kinetics, cyno MARCO
T1 construct: Construct not described; also called cyno MARCO; cynoMARCO
T1 sequence: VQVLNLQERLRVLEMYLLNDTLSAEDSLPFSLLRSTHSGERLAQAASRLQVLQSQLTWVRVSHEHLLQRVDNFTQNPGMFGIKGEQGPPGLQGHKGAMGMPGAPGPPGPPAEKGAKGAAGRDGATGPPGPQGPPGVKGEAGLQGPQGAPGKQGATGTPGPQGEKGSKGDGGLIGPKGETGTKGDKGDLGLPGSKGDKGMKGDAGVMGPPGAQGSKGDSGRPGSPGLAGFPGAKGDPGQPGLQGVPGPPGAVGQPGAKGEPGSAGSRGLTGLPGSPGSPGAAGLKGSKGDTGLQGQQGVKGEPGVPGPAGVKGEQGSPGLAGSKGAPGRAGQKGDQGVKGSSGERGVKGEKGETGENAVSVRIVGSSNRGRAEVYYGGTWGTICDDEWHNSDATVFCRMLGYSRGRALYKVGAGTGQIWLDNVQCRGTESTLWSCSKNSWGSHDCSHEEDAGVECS

[2] = biological target: T2, Mouse MARCO, full length, on cells (mouse, UniProt Q60754 1-518); assay: flow cytometry, 293T cells expressing mouse MARCO
T2 construct: whole, on cells; the cell type is named under assay; also called muMARCO; MuMARCO
T2 sequence (looked up): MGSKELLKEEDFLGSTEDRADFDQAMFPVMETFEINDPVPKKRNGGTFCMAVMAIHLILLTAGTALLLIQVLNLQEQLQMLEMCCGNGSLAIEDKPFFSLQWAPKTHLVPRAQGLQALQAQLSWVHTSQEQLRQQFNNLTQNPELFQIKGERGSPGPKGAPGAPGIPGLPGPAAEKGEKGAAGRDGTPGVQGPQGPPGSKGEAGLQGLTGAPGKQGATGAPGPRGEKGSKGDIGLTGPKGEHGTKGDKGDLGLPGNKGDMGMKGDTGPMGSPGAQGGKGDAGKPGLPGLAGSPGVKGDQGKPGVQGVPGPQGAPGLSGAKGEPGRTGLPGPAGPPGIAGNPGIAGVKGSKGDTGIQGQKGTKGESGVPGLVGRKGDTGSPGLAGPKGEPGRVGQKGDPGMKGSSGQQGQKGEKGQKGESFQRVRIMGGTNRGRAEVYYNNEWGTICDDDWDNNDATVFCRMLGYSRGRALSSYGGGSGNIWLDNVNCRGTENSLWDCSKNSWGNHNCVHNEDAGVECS

[3] = biological target: T3, N-terminally polyhistidine tagged human MARCO ECD (147-520), recombinant (human, UniProt Q9UEW3 147-520); assay: Biacore, recombinant human MARCO; control sample
T3 construct: also called PI-RG-3000; recombinant human MARCO; not shown: N-terminal polyhistidine tag
T3 sequence: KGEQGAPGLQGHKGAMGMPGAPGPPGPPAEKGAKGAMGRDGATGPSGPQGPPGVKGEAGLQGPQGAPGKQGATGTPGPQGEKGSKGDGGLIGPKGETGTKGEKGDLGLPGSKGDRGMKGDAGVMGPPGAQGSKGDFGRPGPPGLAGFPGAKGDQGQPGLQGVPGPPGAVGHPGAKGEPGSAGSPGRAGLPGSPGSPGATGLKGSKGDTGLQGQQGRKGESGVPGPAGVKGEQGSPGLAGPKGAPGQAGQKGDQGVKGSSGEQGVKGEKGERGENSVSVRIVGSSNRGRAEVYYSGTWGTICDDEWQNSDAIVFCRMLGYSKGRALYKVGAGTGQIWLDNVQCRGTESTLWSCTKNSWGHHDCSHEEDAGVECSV

[4] = biological target: T3, N-terminally polyhistidine tagged human …; assay: Biacore, recombinant human MARCO; control sample; remark: listed apart in the source
[5] = biological target: T3, N-terminally polyhistidine tagged human …; assay: Biacore; sample oxidized with 1 mM AAPH, 6 hrs, 40 C
Experimental: (§1) (PBS)+1 mM AAPH for 6 h, 0.5 and 1.5% H₂O₂ in PBS for 24 h, which was compared to a previous experiment at 40° C. (PBS)+1 mM AAPH for 6 h. Post treatment the samples were analyzed by LC-MS/MS which identified the % modification on isolated peptides derived from the antibody after trypsin digest.
(§2) Binding of the stressed samples to recombinant human MARCO was assessed by Biacore.

[6] = biological target: T3, N-terminally polyhistidine tagged human …; assay: ELISA on hMARCO ECD with 2 mM Ca2+, A450-A620
[7] = biological target: T3, N-terminally polyhistidine tagged human …; assay: Biacore; sample oxidized with 0.5% H2O2 (24 hr, RT)
Experimental: as §1, §2

[8] = biological target: T3, N-terminally polyhistidine tagged human …; assay: Biacore; isomerization/fragmentation stress sample
[9] = biological target: T3, N-terminally polyhistidine tagged human …; assay: Biacore; sample stressed 40 C 2 week
Experimental: as §2

[10] = biological target: T3, N-terminally polyhistidine tagged human …; assay: ELISA readout A450-A620; the panel names no target, the legend says MARCO expressing cells; stable transfection pools
[11] = biological target: T3, N-terminally polyhistidine tagged human …; assay: ELISA readout A450-A620; the panel names no target, the legend says MARCO expressing cells; transiently made reference antibody
[12] = biological target: T1, recombinant cynomolgus MARCO protein; assay: KD (nM) Cyno; method not given
[13] = biological target: T3, N-terminally polyhistidine tagged human …; assay: KD (nM) Human; method not given
[14] = biological target: T2, Mouse MARCO, full length, on cells; assay: competition with AF488 E. coli binding to muMARCO 293T cells, flow cytometry

B1: PI-HX-3031 (antibody)
heavy: QVQLKESGPGLVQPSQTLSLTCTVSGFSLTSYHVSWVRQPPGKGLEWMGAIWTGGSIAYNSLLKSRLSISRDTSKSQVFLKMNSLQTEDTATYYCARDLSDYYSSYTSFDYWGQGVMVTVSTAETTAPSVYPLAPGTALKSNSMVTLGCLVKGYFPEPVTVTWNSGALSSGVHTFPAVLQSGLYTLTSSVTVPSSTWSSQAVTCNVAHPASSTKVDKKIVPRECNPCGCTGSEVSSVFIFPPKTKDVLTITLTPKVTCVVVDISQNDPEVRFSWFIDDVEVHTAQTHAPEKQSNSTLRSVSELPIVHRDWLNGKTFKCKVNSGAFPAPIEKSISKPEGTPRGPQVYTMAPPKEEMTQSQVSITCMVKGFYPPDIYTEWKMNGQPQENYKNTPPTMDTDGSYFLYSKLNVKKETWQQGNTFTCSVLHEGLHNHHTEKSLSHSP
light: DIQMTQSPASLSTSLGETVSIECLASEGISNDLAWYQQKSGKSPQLLIYAASRLQDGVPSRFSGSGSGTRYSLKISGMQPEDEADYFCQQSYKYPLTFGSGTKLEIKRADAAPTVSIFPPSTEQLATGGASVVCLMNNFYPRDISVKWKIDGTERRDGVLDSVTDQDSKDSTYSMSSTLSLTKADYESHNLYTCEVVHKTSSSPVVKSFNRNEC
notes: Parental rat hybridoma, rat IgG2a
For B1, the Kd [1] was 0.109 nM and the binding result [2] was “no binding”.

B2: PI-3015-AB (antibody, human IgG1, kappa)
heavy: not shown
light: DIQMTQSPSSLSASVGDRVTITCRASEGISNDLAWYQQKPGKAPKLLIYAASRLQSGVPSRFSGSGSGTDYTLTISSMQPEDFATYYCQQSYKYPLTFGQGTKLEIKRTVAAPSVFIFPPSDEQLKSGTASVVCLLNNFYPREAKVQWKVDNALQSGNSQESVTEQDSKDSTYSLSSTLTLSKADYEKHKVYACEVTHQGLSSPVTKSFNRGEC
A Kd [3] of 1.2 nM, a Kd [4] of 0.97 nM and a Kd [5] of 1.1 nM were found for B2 in this work. The “EC50 (read off the curve)” value [6] was roughly 1 nM, the Kd [7] was 1.05 nM and the Kd [8] was 1.24 nM. The Kd [9] was 1.2 nM, the “EC50 (read off the curve)” value [10] was roughly 0.2 nM and the “EC50 (read off the curve)” value [11] was roughly 0.2 nM.

B3: PI-3010-AB (antibody, human IgG1, kappa)
heavy: not shown
light: DIQMTQSPASLSTSLGETVSIECLASEGISNDLAWYQQKSGKSPQLLIYAASRLQDGVPSRFSGSGSGTRYSLKISGMQPEDEADYFCQQSYKYPLTFGSGTKLEIKRTVAAPSVFIFPPSDEQLKSGTASVVCLLNNFYPREAKVQWKVDNALQSGNSQESVTEQDSKDSTYSLSSTLTLSKADYEKHKVYACEVTHQGLSSPVTKSFNRGEC
B3 was tested, and the Kd [12] was 0.26 nM and the Kd [13] was 0.43 nM and 0.64 nM.

B4: PI-HX-3061 (antibody, rat IgG2a)
heavy: EVQLVESGGGLVQPGSSLKLSCVASKFTFSNYGMNWIRQAPKKGLEWIALIYYNSNNKYYADSVKGRFTISRDNSKNTLYLEMNSLRSEDTAMYYCAKSLTGGSDYFDSWGQGVMVTVSSAETTAPSVYPLAPGTALKSNSMVTLGCLVKGYFPEPVTVTWNSGALSSGVHTFPAVLQSGLYTLTSSVTVPSSTWPSQTVTCNVAHPASSTKVDKKIVPRNCGGDCKPCICTGSEVSSVFIFPPKPKDVLTITLTPKVTCVVVDISQDDPEVHFSWFVDDVEVHTAQTRPPEEQFNSTFRSVSELPILHQDWLNGRTFRCKVTSAAFPSPIEKTISKPEGRTQVPHVYTMSPTKEEMTQNEVSITCMVKGFYPPDIYVEWQMNGQPQENYKNTPPTMDTDGSYFLYSKLNVKKEKWQQGNTFTCSVLHEGLHNHHTEKSLSHSP
light: DVQMTQSPSYLAASPGESVSISCKASKSIGTFLAWYQEKPEKTNKLLIYSGSTLQSGTPSRFSGSGSGTDFTLTIRNLEPEDFAVYYCQQHDEYPFTFGSGTKLEIKRADAAPTVSIFPPSTEQLATGGASVVCLMNNFYPRDISVKWKIDGTERRDGVLDSVTDQDSKDSTYSMSSTLSLTKADYESHNLYTCEVVHKTSSSPVVKSFNRNEC
notes: Parental rat hybridoma, rat IgG2a; cross reactive with human and mouse MARCO
An EC50 [14] of 0.85 nM was found for B4 in this work.
